Patent US11787839B2, “Targeting α2δ-1-bound glutamate receptors for treating diseases and disorders” (Board of Regents, The University of Texas System, priority 2017, dated 2023)

Key:
Assay type in all cases: cell-based
[1] = system: NMDARs of spinally projecting PVN neurons; test: Recordings of spinally projecting PVN neurons in WT and Cacna2d1 KO mouse slices (Ang II); conditions: Ang II 2 μmol/L
Description: Animals: 10- to 12-week-old male Sprague Dawley rats were used (Harlan Sprague Dawley, Indianapolis, Ind.) and both male and female mice (C57BL/6 genetic background) in the experiments. Two breeding pairs of Cacna2d1+/− mice were purchased from Medical Research Council (Harwell Didcot, Oxfordshire, UK), and Cacna2d1−/− (knockout) mice and Cacna2d1+/+ (wild-type) littermates were obtained by breeding the heterozygous mice. Because no sex differences were found in the effect of Ang II on synaptic NMDAR activity, electrophysiological data from male and female mice were pooled. All surgical preparation and experimental protocols were approved by the Animal Care and Use Committee of The University of Texas MD Anderson Cancer Center and conformed to the National Institutes of Health guidelines for the ethical use of animals. All efforts were made to minimize both the suffering and number of animals used.
Retrograde labeling of spinally projecting PVN neurons: Rats or mice were anesthetized with 2-3% isoflurane, and their spinal cords at the T1-T4 level were exposed through dorsal laminectomy. A fluorescent microsphere suspension (FluoSpheres, 0.04 μm; Molecular Probes, Invitrogen, Eugene, Oreg.) was pressure ejected (Nanoject II Microinjectors, Drummond Scientific Company, Broomall, Pa.) bilaterally into the IML region of the spinal cord in six separate 50-nl injections using a glass micropipette (tip diameter, 20-30 μm). The tracer injection was monitored through a surgical microscope (Li et al., 2002, 2003). The wound was closed with sutures after injection. Animals were returned to their cages for 4-7 days, which was sufficient time to permit the tracer to be retrogradely transported to the PVN. The animals were inspected daily for motor activity, signs of infection, and food and water intake.
Brain slice preparation: Four to seven days after fluorescent tracer injection, the animals were anesthetized with isoflurane and rapidly decapitated. The brain was quickly removed and placed in ice-cold artificial CSF (aCSF) saturated with 95% O2 and 5% CO2. A tissue block containing the hypothalamus was cut from the brain and glued onto the stage of a vibratome (Leica VT1000 S, Leica Biosystems Inc. Buffalo Grove, Ill.) as described previously (Li et al., 2003; Ye et al., 2011). […]
Electrophysiological recordings: The fluorescence-labeled neurons located in the medial one-third of the PVN area between the third ventricle and the fornix were selected for recording (Li et al., 2002, 2003). […]
The miniature excitatory postsynaptic currents (mEPSCs) were recorded in the presence of 1 μmol/L tetrodotoxin (TTX) and 20 μmol/L bicuculline at a holding potential of −60 mV (Li et al., 2003; Ye et al., 2011). […]

[2] = biological target: T1, NMDARs of spinal dorsal horn neurons (Rattus norvegicus, UniProt P35439+Q00959+Q00960); test: Electrophysiological recordings in rat spinal cord slices (SNL, Cacna2d1 vector); conditions: SNL rats; peptides 1 mM for 60 min
T1 construct: from tissue; host or cells: rat lumbar spinal cord slices (lamina II neurons) and synaptosomes made from them
Experimental: Electrophysiological recordings in spinal cord slices: Anesthesia was induced in rats or mice with isoflurane and removed the lumbar spinal cords via laminectomy. […] The spinal cord slices were placed in a glass bottom chamber and continuously perfused with Krebs solution at 5.0 ml/min at 34° C. maintained by an inline solution heater and a temperature controller.
It becomes impossible to visualize neurons in other laminas in adult (>10-week-old) rodent spinal cords because of heavy laminar myelination. […] The tip of the puff pipette was placed 150 μm away from the recorded neuron.
In some experiments, the attached dorsal root was electrically stimulated with a stimulating electrode (0.5 ms, 0.6 mA and 0.1 Hz) to evoke monosynaptic excitatory postsynaptic currents (EPSCs). The α-amino-3-hydroxy-5-methyl-4-isoxazolepropionic acid receptor (AMPAR)-mediated EPSCs were recorded at a holding potential of −60 mV in the presence of 10 μM bicuculline and 1 μM strychnine, whereas NMDAR-mediated EPSCs were recorded at +40 mV in the presence of 10 μM 6-cyano-7-nitroquinoxaline-2,3-dione, 10 μM bicuculline, and 1 μM strychnine. […] All signals were recorded using an amplifier (MultiClamp700B; Axon Instruments Inc., Union City, Calif.), filtered at 1-2 kHz, digitized at 10 kHz, and stored for off-line analysis. Final spinal cord slice recordings were performed 3-4 weeks after the nerve injury or sham surgery. In all electrophysiological experiments, 3-5 animals were used for each recording protocol, and only 1 neuron was recorded in each spinal cord slice.

[3] = biological target: T2, NMDARs of RVLM-projecting PVN neurons (Rattus norvegicus, UniProt P35439+Q00959+Q00960); test: Recordings of RVLM-projecting PVN neurons in slices of WKY rats and SHRs
T2 construct: from tissue; host or cells: rat hypothalamic slices containing the PVN (Sprague-Dawley, WKY, SHR) and synaptosomes made from them
T2 sequence (Q00959 20-1464 limits assumed, other chains not shown): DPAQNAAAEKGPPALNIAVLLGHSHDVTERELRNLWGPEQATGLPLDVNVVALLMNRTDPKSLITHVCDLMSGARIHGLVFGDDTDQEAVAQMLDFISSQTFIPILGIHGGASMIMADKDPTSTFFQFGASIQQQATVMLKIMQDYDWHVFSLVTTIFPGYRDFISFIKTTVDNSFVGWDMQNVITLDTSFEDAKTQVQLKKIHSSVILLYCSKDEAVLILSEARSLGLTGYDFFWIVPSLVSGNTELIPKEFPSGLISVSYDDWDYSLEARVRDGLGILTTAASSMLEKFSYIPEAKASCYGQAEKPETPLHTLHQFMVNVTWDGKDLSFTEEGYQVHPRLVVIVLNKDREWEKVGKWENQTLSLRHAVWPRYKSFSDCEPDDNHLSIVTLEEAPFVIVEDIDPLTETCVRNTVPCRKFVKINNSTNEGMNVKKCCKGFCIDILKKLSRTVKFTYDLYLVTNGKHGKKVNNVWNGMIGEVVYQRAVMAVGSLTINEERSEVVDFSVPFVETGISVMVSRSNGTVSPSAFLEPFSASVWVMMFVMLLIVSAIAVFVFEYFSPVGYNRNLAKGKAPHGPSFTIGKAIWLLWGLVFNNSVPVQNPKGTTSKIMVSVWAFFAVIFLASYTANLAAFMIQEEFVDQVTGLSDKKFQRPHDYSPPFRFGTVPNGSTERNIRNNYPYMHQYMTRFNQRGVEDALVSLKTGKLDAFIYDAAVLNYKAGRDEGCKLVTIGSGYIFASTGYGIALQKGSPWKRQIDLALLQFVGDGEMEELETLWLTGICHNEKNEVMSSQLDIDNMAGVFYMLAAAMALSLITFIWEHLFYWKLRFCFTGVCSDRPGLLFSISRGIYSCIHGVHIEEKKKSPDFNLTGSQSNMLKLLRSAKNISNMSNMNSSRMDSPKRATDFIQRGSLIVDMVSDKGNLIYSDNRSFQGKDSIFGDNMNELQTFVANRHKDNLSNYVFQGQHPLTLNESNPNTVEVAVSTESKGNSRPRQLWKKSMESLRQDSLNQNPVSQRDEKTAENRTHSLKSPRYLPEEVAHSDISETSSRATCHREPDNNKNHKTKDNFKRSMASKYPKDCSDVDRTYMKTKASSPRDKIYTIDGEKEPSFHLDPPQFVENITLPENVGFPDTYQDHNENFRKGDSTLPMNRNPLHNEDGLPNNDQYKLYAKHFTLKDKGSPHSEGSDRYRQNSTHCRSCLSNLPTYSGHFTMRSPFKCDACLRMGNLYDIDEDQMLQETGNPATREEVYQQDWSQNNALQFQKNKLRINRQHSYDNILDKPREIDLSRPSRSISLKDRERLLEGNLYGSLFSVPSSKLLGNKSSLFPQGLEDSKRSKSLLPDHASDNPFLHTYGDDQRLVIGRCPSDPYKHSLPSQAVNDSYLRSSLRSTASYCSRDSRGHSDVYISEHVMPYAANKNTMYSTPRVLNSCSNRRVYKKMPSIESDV
T2 sequence (Q00960 27-1482, other chains not shown): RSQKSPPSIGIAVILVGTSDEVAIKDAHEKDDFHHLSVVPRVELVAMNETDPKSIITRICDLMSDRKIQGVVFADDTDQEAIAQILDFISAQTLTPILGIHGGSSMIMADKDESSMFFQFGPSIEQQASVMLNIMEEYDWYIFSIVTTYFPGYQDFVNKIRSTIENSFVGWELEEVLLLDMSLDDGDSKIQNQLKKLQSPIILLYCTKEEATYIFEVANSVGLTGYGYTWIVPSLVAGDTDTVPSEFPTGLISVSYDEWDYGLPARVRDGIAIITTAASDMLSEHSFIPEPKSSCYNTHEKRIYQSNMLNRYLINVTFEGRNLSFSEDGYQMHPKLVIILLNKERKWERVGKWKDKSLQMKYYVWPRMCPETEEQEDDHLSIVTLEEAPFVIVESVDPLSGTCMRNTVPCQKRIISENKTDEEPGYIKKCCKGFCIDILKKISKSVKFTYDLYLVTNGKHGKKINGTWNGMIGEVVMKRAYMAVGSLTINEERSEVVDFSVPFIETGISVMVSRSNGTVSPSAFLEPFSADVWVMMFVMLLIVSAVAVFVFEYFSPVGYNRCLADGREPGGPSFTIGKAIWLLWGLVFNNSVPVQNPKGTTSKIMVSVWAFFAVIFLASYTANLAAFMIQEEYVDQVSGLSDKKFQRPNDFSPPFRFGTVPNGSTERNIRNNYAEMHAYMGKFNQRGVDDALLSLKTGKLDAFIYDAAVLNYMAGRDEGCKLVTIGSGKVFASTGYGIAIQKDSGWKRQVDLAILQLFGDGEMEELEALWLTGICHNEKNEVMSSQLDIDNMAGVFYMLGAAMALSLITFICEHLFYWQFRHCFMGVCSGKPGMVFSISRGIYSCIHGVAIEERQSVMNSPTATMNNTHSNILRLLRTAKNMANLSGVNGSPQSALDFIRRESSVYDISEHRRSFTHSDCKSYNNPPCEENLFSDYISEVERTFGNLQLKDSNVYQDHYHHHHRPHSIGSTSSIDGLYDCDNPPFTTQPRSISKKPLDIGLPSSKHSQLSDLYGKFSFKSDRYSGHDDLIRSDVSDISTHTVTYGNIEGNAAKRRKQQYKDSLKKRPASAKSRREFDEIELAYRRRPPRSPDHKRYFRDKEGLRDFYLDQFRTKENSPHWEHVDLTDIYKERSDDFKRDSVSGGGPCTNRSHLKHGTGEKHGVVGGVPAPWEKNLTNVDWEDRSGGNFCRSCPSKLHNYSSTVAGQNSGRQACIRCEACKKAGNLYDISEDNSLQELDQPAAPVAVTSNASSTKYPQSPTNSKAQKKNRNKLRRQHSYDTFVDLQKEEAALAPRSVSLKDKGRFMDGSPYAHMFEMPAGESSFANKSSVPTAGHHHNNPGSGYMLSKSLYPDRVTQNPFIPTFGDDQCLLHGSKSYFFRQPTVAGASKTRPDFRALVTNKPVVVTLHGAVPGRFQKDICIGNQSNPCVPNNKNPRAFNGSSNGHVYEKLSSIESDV

Ang II: angiotensin II, obtained from Sigma (DRVYIHPF; Angiotensin-2; UniProt P01019 25-32, looked up)
amplitude of puff NMDA-elicited currents ([1]; Cacna2d1−/− mice): had no effect | frequency of mEPSCs ([1]; Cacna2d1−/− mice): had no effect | NMDAR-mediated frequency of mEPSCs ([1]; wild-type mice): markedly increased | amplitude of puff NMDA-elicited currents ([1]; wild-type mice): markedly increased

YGRKKRRQRRRVSGLNPSLWSIFGLQFILLWLVSGSRHYLW (a2d1 peptide) [α2δ-1Tat peptide, 30-amino-acid peptide mimicking the C-terminal domain of α2δ-1 fused to the cell-penetrating peptide Tat]
increased pre- and postsynaptic NMDAR activity of spinal dorsal horn neurons [2]: normalized | puff NMDA currents of labelled PVN neurons ([3]; SHRs): restored | ratio of NMDAR-EPSCs to AMPAR-EPSCs ([3]; SHRs): normalized | baseline frequency of mEPSCs of labelled PVN neurons ([3]; SHRs, AP5 50 μmol L-1, gabapentin 100 μmol L-1, peptides 1 μmol L-1, 60 min): completely normalized | amplitude of evoked NMDAR-EPSCs of labelled PVN neurons ([3]; SHRs, gabapentin 100 μmol L-1, peptides 1 μmol L-1, 60 min): fully normalized | amplitude of puff NMDA currents ([3]; WKY rats): had no effect | frequency or amplitude of mEPSCs of labelled PVN neurons ([3]; WKY rats): had no effect | ratio of NMDAR-EPSCs to AMPAR-EPSCs ([3]; WKY rats): had no effect | amplitude of evoked AMPAR-EPSCs of labelled PVN neurons ([3]; WKY rats or SHRs): had no effect | amplitude of evoked NMDAR-EPSCs of labelled PVN neurons ([3]; WKY rats, gabapentin 100 μmol L-1, peptides 1 μmol L-1, 60 min): had no effect
